Experimental data from patent US20020082384A1, “Process for folding chemically synthesized polypeptides” (priority 2000, published 2002).

Assays:
fresh monocytes = assay: Migration across a polycarbonate filter in response to TARC (Imai method), monocytes; type: cell-based, human
Method: (§1) The biological activity of hu-TARC obtained by the methodology of the present invention was performed according to the Imai method (T. Imai et al., J. Biol. Chem., 271, 21514, 1996).
(§2) Human T cell lines, Hut78, Hut 102, and Jurkat, as well as fresh monocytes, neutrophils and lymphocytes were assessed for their migration across a polycarbonate filter in response to TARC.

neutrophils = assay: Migration across a polycarbonate filter in response to TARC (Imai method), neutrophils; type: cell-based, human
Method: as §1, §2

human lymphocytes = assay: Binding of 125I-labelled chemokine to human lymphocytes; details: binding of 125I-labelled chemokine to human lymphocytes (FIG. 6)
Method: FIG. 6 is a graph of the comparison between the biological activity of recombinant I-309 and the synthetic, folded I-309 of the present invention. Biological activity was asses-sed by binding the chemokine, labelled with ^125I, to human lymphocytes.
Folding of the chemokine derivative purified byRP-HPLC was carried out by dissolving 65 mg of product in 60 ml of 0.6 M GuHCl, 10 mM NaHPO4 and 1 mM Tris at pH 8.0 and adding cysteine at a concentration of 100 fold molar excess with respect to the peptide. The polypeptide solution was left at 37° C. for 4 days. Complete cysteine pairing was checked by mass spectrometry after reaction with N-ethyhnaleimide (NEM). The yield of final folded chemokine was almost 25%.

B1: synthetic TARC: 71-residue human thymus and activation regulated chemokine, chemically synthesized as Cys10,11,34,50(S-t-Bu) derivative and folded with cysteine (peptide, UniProt Q92583 24-94, looked up)
C-C motif chemokine 17: ARGTNVGRECCLEYFKGAIPLRKLKTWYQTSEDCSRDAIVFVTVQGRAICSDPNNKRVKNAVKYLQSLERS
With B1 the chemotactic response (fresh monocytes) was “No chemotactic response” and the chemotactic response (neutrophils) was “No chemotactic response”.

B2: recombinant TARC: recombinant thymus and activation regulated chemokine used as comparator (protein, UniProt Q92583 24-94, looked up)
C-C motif chemokine 17: ARGTNVGRECCLEYFKGAIPLRKLKTWYQTSEDCSRDAIVFVTVQGRAICSDPNNKRVKNAVKYLQSLERS
With B2 the chemotactic response (fresh monocytes) was “No chemotactic response” and the chemotactic response (neutrophils) was “No chemotactic response”.

B3: synthetic, folded, hu-I-309: human chemokine I-309, chemically synthesized with 6 S-t-Bu protected cysteines and folded with cysteine (peptide, UniProt P22362 24-96, looked up)
C-C motif chemokine 1: KSMQVPFSRCCFSFAEQEIPLRAILCYRNTSSICSNEGLIFKLKRGKEACALDTVGWVQRHRKMLRHCPSKRK
B3 was tested, and the “biological activity compared with recombinant I-309” value (human lymphocytes) was “equivalent to recombinant protein”.
